Experimental findings from US20220146515A1 (XIAMEN INNODX BIOTECH, published 2022) are described below.

Holding throughout (experiment): competition ELISA, antibody preincubated with target, AMH-coated plate
The target of experiment [1] is T1, AMH truncated antigen 42-46 (human).
T1 peptide: DLDWP
As for the experimental part:
(§1) 1. AMH antigen was diluted with carbonic acid buffer (20 mmol/L CB, pH 9.6) and then coated on a polyvinyl chloride plate. In the pretreatment, the antibody purified by the protein A column and the synthesized AMH truncated antigen sequences (see Table 3 for each synthetic sequence) were subjected to proportion incubation (100 ng/ml antibody: 50 ug/ml truncated antigen) for 30 minutes, that were test samples; the control sample was 100 ng/ml antibody: PBS, incubation for 30 minutes, and then the test samples after incubation and the control sample were added to AMH antigen plate and incubated for 30 minutes, the plate was washed for 5 times, added with GAM-HRP (1/5000 dilution) and incubated for 30 minutes, the plate was washed for 5 times, and the substrate was added and incubated for 15 minutes. The values under wavelength of 450/620 were read by microplate reader, and the detected OD values were finally calculated and analyzed. The calculation formula was: (control sample OD value−test sample OD value)/control sample OD value, and the criterion for determination was as follows: more than 90%, which indicated a good competitive effect, showing that the antibody should recognize the epitope.

For experiment [2], the target named is T2, AMH truncated antigen 43-50 (human).
T2 peptide: LDWPPGSP
As for the experimental part:
as §1

The target in experiment [3] is T3, AMH truncated antigen 42-49 (human).
T3 peptide: DLDWPPGS
The protocol:
as §1

The target of experiment [4] is T4, AMH truncated antigen 42-47 (human).
T4 peptide: DLDWPP
The protocol: as §1

The target of experiment [5] is T5, AMH truncated antigen 40-45 (human).
T5 peptide: REDLDW
The protocol: as §1

Experiment [6] deals with T6, AMH truncated antigen 32-41 (human).
T6 peptide: VGTSGLIFRE
As for the experimental part:
as §1

The target of experiment [7] is T7, AMH truncated antigen 36-47 (human).
T7 construct: also called human AMH36-47; AMH3647-27 (Human)
T7 peptide: GLIFREDLDWPP
The protocol: as §1

For experiment [8], the target named is T8, AMH truncated antigen 40-47 (human).
T8 peptide: REDLDWPP
The protocol: as §1

For experiment [9], the target named is T9, AMH truncated antigen 31-43 (human).
T9 peptide: AVGTSGLIFREDL
The protocol:
as §1

For experiment [10], the target named is T10, AMH truncated antigen 71-85 (human).
T10 peptide: RVVGALSAYEQAFLG
The protocol: as §1

Experiment [11] addresses T11, AMH truncated antigen 21-35 (human).
T11 peptide: GTEALRAEEPAVGTS
The protocol:
as §1

Experiment [12] has as its target T12, AMH truncated antigen 40-46 (human).
T12 peptide: REDLDWP
As for the experimental part:
as §1

In experiment [13] the target is T13, AMH truncated antigen 34-45 (human).
T13 peptide: TSGLIFREDLDW
The protocol:
as §1

Experiment [14] concerns the target T14, AMH truncated antigen 38-45 (human).
T14 peptide: IFREDLDW
The protocol:
as §1

B1: monoclonal antibody C9F2-2 (antibody, V domains shown)
VH: EVQLVESGGGLVKPGGSLKLSCAASGFAFSTYDMSWVRQTPEKRLEWVAYISPGGGATYYPDTVKGRFTISRDNAKNTLYLQMTSLKSEDTAMYYCAGRRDYYGMDYWGQGTSVTVSS
VL: DVVMTQTPLSLPVSLGDQASISCRSSQSLVHSNGNTYLHWYLQKPGQSPKLLIYKVSNRFSGVPDRFSGSGSGTDFTLKISRVEAEDLGVYFCSQSTHVPWTFGGGTKLEIK
notes: Mouse hybridoma antibody purified from ascites; the tie is indirect; also called hybridoma CCTCC NO: C2018183
Take B1: the percent inhibition was -10% in experiment [1]; 17% in [2]; -8% in experiment [3]; 6% in [4]; -14% in experiment [5]; 9% in [6]. Besides, the percent inhibition was 100% in [7]; -19% in experiment [8]; 25% in [9]; 21% in [10]; 10% in [11]; -2% in [12]. In addition, the values for the percent inhibition in [13] and in [14] were 98% and 92%, respectively.
